Results published in IntAct's records for PubMed 25910212.

B1: LHFPL tetraspan subfamily member 5 protein (Homo sapiens), Q8TAF8 (parent)
chain: MVKLLPAQEAAKIYHTNYVRNSRAVGVMWGTLTICFSVLVMALFIQPYWIGDSVNTPQAGYFGLFSYCVGNVLSSELICKGGPLDFSSIPSRAFKTAMFFVALGMFLIIGSIICFSLFFICNTATVYKICAWMQLAAATGLMIGCLVYPDGWDSSEVRRMCGEQTGKYTLGHCTIRWAFMLAILSIGDALILSFLAFVLGYRQDKLLPDDYKADGTEEV
partner: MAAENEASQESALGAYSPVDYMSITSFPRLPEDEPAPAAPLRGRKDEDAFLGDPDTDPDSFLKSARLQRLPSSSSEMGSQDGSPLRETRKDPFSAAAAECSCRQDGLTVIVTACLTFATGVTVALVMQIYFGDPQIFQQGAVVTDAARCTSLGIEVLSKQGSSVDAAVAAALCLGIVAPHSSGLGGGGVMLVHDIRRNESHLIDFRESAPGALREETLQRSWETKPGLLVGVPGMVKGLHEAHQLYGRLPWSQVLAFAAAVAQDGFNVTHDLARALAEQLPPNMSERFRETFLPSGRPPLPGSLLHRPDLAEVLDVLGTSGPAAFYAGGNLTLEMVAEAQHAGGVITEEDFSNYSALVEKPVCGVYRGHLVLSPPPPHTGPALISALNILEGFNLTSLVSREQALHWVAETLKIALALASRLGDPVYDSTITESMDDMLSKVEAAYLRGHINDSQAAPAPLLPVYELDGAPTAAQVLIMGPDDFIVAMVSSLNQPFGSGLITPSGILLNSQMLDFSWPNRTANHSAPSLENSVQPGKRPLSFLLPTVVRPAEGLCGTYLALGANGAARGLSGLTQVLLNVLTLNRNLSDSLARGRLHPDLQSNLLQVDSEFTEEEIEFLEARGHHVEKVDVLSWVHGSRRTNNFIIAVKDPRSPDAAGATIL
B2: Bleomycin hydrolase (Homo sapiens), Q13867 (parent)
chain: MSSSGLNSEKVAALIQKLNSDPQFVLAQNVGTTHDLLDICLKRATVQRAQHVFQHAVPQEGKPITNQKSSGRCWIFSCLNVMRLPFMKKLNIEEFEFSQSYLFFWDKVERCYFFLSAFVDTAQRKEPEDGRLVQFLLMNPANDGGQWDMLVNIVEKYGVIPKKCFPESYTTEATRRMNDILNHKMREFCIRLRNLVHSGATKGEISATQDVMMEEIFRVVCICLGNPPETFTWEYRDKDKNYQKIGPITPLEFYREHVKPLFNMEDKICLVNDPRPQHKYNKLYTVEYLSNMVGGRKTLYNNQPIDFLKKMVAASIKDGEAVWFGCDVGKHFNSKLGLSDMNLYDHELVFGVSLKNMNKAERLTFGESLMTHAMTFTAVSEKDDQDGAFTKWRVENSWGEDHGHKGYLCMTDEWFSEYVYEVVVDRKHVPEEVLAVLEQEPIILPAWDPMGALAE
B3: U4/U6 small nuclear ribonucleoprotein Prp31 (Homo sapiens), Q8WWY3 (parent)
chain: MSLADELLADLEEAAEEEEGGSYGEEEEEPAIEDVQEETQLDLSGDSVKTIAKLWDSKMFAEIMMKIEEYISKQAKASEVMGPVEAAPEYRVIVDANNLTVEIENELNIIHKFIRDKYSKRFPELESLVPNALDYIRTVKELGNSLDKCKNNENLQQILTNATIMVVSVTASTTQGQQLSEEELERLEEACDMALELNASKHRIYEYVESRMSFIAPNLSIIIGASTAAKIMGVAGGLTNLSKMPACNIMLLGAQRKTLSGFSSTSVLPHTGYIYHSDIVQSLPPDLRRKAARLVAAKCTLAARVDSFHESTEGKVGYELKDEIERKFDKWQEPPPVKQVKPLPAPLDGQRKKRGGRRYRKMKERLGLTEIRKQANRMSFGEIEEDAYQEDLGFSLGHLGKSGSGRVRQTQVNEATKARISKTLQRTLQKQSVVYGGKSTIRDRSSGTASSVAFTPLQGLEIVNPQAAEKKVAEANQKYFSSMAEFLKVKGEKSGLMST
partner: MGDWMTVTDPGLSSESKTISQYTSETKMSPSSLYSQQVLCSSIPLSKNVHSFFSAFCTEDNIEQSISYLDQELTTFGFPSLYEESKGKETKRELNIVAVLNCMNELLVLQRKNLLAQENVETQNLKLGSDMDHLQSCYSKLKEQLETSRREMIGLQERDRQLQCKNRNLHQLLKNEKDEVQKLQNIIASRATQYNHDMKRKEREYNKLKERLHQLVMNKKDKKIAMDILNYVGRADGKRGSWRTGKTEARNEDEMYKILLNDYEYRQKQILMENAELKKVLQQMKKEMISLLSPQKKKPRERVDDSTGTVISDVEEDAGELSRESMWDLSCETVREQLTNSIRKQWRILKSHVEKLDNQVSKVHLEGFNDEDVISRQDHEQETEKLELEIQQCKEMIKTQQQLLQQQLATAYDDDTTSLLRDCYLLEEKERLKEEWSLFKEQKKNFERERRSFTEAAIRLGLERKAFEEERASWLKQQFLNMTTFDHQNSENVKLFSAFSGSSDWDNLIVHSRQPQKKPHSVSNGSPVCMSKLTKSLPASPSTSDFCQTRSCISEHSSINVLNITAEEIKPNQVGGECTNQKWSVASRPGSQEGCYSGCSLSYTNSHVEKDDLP
B4: Pigment epithelium-derived factor (Homo sapiens), P36955 (parent)
chain: MQALVLLLCIGALLGHSSCQNPASPPEEGSPDPDSTGALVEEEDPFFKVPVNKLAAAVSNFGYDLYRVRSSTSPTTNVLLSPLSVATALSALSLGAEQRTESIIHRALYYDLISSPDIHGTYKELLDTVTAPQKNLKSASRIVFEKKLRIKSSFVAPLEKSYGTRPRVLTGNPRLDLQEINNWVQAQMKGKLARSTKEIPDEISILLLGVAHFKGQWVTKFDSRKTSLEDFYLDEERTVRVPMMSDPKAVLRYGLDSDLSCKIAQLPLTGSMSIIFFLPLKVTQNLTLIEESLTSEFIHDIDRELKTVQAVLTVPKLKLSYEGEVTKSLQEMKLQSLFDSPDFSKITGKPIKLTQVEHRAGFEWNEDGAGTTPSPGLQPAHLTFPLDYHLNQPFIFVLRDTDTGALLFIGKILDPRGP
partner: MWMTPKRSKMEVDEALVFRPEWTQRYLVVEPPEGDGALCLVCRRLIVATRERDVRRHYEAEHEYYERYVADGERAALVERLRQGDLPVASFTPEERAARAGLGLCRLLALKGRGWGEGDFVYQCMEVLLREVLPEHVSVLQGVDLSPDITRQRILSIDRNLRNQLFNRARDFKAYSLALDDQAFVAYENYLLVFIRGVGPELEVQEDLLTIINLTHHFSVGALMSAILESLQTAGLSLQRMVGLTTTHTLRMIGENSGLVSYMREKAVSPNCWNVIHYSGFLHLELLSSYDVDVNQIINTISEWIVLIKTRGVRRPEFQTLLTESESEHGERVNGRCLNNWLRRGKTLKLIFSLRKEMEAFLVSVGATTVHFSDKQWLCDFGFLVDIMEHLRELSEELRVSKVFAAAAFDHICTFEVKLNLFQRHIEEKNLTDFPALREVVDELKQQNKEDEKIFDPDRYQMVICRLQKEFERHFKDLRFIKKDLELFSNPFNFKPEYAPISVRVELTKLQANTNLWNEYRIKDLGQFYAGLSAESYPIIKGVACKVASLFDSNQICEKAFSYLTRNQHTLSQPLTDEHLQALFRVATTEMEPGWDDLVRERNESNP
B5: Caspase-10 (Homo sapiens), Q92851-4 (parent)
chain: MKSQGQHWYSSSDKNCKVSFREKLLIIDSNLGVQDVENLKFLCIGLVPNKKLEKSSSASDVFEHLLAEDLLSEEDPFFLAELLYIIRQKKLLQHLNCTKEEVERLLPTRQRVSLFRNLLYELSEGIDSENLKDMIFLLKDSLPKTEMTSLSFLAFLEKQGKIDEDNLTCLEDLCKTVVPKLLRNIEKYKREKAIQIVTPPVDKEAESYQGEEELVSQTDVKTFLEALPQESWQNKHAGSNGNRATNGAPSLVSRGMQGASANTLNSETSTKRAAVYRMNRNHRGLCVIVNNHSFTSLKDRQGTHKDAEILSHVFQWLGFTVHIHNNVTKVEMEMVLQKQKCNPAHADGDCFVFCILTHGRFGAVYSSDEALIPIREIMSHFTALQCPRLAEKPKLFFIQACQGEEIQPSVSIEADALNPEQAPTSLQDSIPAEADFLLGLATVPGYVSFRHVEEGSWYIQSLCNHLKKLVPRHEDILSILTAVNDDVSRRVDKQGTKKQMPQPAFTLRKKLVFPVPLDALSL
B6: Progranulin (Homo sapiens), P28799 (parent)
chain: MWTLVSWVALTAGLVAGTRCPDGQFCPVACCLDPGGASYSCCRPLLDKWPTTLSRHLGGPCQVDAHCSAGHSCIFTVSGTSSCCPFPEAVACGDGHHCCPRGFHCSADGRSCFQRSGNNSVGAIQCPDSQFECPDFSTCCVMVDGSWGCCPMPQASCCEDRVHCCPHGAFCDLVHTRCITPTGTHPLAKKLPAQRTNRAVALSSSVMCPDARSRCPDGSTCCELPSGKYGCCPMPNATCCSDHLHCCPQDTVCDLIQSKCLSKENATTDLLTKLPAHTVGDVKCDMEVSCPDGYTCCRLQSGAWGCCPFTQAVCCEDHIHCCPAGFTCDTQKGTCEQGPHQVPWMEKAPAHLSLPDPQALKRDVPCDNVSSCPSSDTCCQLTSGEWGCCPIPEAVCCSDHQHCCPQGYTCVAEGQCQRGSEIVAGLEKMPARRASLSHPRDIGCDQHTSCPVGQTCCPSLGGSWACCQLPHAVCCEDRQHCCPAGYTCNVKARSCEKEVVSAQPATFLARSPHVGVKDVECGEGHFCHDNQTCCRDNRQGWACCPYRQGVCCADRRHCCPAGFRCAARGTKCLRREAPRWDAPLRDPALRQLL

Variants of: B1
Conditions: with ggt7_human GGT7, Q9UJ14

Row | Variant | effect of a mutation on the interaction
1 | T165M | disrupting interaction strength

Variants of: B2
Conditions: with nud12_human NUDT12, Q9BQG2
Sequence of nud12_human NUDT12, Q9BQG2 (Q9BQG2 whole entry): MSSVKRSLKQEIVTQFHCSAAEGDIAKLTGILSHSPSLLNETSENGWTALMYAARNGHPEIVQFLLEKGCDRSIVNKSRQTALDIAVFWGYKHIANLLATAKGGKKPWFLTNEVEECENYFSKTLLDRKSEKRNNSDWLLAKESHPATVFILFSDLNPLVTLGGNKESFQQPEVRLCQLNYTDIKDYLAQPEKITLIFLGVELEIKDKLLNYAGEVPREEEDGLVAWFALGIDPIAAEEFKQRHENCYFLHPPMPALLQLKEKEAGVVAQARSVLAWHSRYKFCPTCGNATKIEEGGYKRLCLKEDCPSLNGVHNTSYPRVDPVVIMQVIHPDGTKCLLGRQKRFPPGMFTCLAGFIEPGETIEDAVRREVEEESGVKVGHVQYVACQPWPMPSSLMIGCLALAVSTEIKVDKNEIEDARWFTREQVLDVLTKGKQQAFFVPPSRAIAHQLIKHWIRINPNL

Row | Variant | effect of a mutation on the interaction
2 | I443V | with no effect

Variants of: B3
Conditions: with adip_human SSX2IP

Row | Variant | effect of a mutation on the interaction
3 | L107V | with no effect

Variants of: B4
Conditions: with epmip_human EPM2AIP1, Q7L775

Row | Variant | effect of a mutation on the interaction
4 | T72M | with no effect

Variants of: B5
Conditions: with xiap_human XIAP

Row | Variant | effect of a mutation on the interaction
5 | P501L | disrupting interaction strength
6 | V410I | disrupting interaction strength

Variants of: B6
Conditions: with hxa1_human HOXA1, P49639
Sequence of hxa1_human HOXA1, P49639 (P49639 whole entry): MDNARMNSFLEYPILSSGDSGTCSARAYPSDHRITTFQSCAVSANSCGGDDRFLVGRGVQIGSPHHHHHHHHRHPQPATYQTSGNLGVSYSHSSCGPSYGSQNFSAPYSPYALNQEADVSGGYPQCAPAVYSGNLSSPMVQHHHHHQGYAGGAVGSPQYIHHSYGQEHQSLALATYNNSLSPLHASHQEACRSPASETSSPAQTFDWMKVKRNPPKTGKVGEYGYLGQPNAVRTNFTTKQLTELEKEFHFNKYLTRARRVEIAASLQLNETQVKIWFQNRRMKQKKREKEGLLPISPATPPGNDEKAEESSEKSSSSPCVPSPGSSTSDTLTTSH

Row | Variant | effect of a mutation on the interaction
7 | R432C | disrupting interaction strength

Variants of: B6
Conditions: with ARFGAP1, Q8N6T3-3
Sequence of ARFGAP1, Q8N6T3-3 (Q8N6T3 other isoform, or with tags, fused parts or gaps): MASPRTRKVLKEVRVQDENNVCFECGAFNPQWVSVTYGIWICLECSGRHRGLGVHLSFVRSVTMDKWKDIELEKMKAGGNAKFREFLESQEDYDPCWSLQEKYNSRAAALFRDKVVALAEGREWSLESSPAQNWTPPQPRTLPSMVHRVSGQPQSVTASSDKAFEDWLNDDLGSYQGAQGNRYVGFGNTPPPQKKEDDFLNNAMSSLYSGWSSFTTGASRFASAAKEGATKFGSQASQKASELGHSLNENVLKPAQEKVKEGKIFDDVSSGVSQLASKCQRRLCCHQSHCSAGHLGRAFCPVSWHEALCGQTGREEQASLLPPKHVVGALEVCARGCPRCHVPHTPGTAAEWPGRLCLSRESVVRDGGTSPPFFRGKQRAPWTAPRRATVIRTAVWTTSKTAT

Row | Variant | effect of a mutation on the interaction
8 | R432C | disrupting interaction strength

Variants of: B6
Conditions: with sgta_human SGTA

Row | Variant | effect of a mutation on the interaction
9 | R432C | disrupting interaction strength

Variants of: B6
Conditions: with otx1_human OTX1, P32242
Sequence of otx1_human OTX1, P32242 (P32242 whole entry): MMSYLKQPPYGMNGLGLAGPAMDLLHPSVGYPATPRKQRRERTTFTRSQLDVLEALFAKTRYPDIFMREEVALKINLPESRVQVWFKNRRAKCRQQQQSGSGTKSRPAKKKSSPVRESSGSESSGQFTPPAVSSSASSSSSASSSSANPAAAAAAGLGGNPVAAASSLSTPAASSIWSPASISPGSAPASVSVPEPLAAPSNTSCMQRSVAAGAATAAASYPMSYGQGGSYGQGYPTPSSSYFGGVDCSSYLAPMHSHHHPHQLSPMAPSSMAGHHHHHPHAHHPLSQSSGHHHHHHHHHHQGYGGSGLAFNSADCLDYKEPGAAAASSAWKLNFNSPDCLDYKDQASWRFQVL

Row | Variant | effect of a mutation on the interaction
10 | R432C | with no effect

Variants of: B6
Conditions: with ccd33_human CCDC33, Q8N5R6
Sequence of ccd33_human CCDC33, Q8N5R6 (Q8N5R6 whole entry): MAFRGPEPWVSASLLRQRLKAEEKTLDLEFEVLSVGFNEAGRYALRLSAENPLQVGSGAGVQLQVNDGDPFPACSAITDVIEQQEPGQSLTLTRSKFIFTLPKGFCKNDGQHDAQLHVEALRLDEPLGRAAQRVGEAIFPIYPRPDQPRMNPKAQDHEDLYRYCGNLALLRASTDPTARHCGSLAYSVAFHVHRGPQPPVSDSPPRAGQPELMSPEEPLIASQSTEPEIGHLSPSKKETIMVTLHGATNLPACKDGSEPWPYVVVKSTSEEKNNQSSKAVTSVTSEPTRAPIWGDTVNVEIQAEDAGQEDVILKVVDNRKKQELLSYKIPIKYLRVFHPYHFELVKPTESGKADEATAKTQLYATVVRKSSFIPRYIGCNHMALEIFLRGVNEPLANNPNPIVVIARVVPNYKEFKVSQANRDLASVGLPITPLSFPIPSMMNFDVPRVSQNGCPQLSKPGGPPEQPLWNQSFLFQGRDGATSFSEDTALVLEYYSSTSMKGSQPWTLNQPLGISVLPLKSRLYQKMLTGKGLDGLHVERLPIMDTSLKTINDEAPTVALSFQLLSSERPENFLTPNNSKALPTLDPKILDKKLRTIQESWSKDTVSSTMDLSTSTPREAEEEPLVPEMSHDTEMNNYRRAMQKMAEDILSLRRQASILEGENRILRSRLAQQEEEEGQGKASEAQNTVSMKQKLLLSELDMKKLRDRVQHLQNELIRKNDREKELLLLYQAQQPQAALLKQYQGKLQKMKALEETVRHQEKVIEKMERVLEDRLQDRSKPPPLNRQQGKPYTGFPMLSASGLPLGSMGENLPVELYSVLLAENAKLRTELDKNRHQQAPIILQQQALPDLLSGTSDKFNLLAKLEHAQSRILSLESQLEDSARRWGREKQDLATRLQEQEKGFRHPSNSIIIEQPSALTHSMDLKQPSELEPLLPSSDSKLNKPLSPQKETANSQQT

Row | Variant | effect of a mutation on the interaction
11 | R432C | disrupting interaction strength
